B1: Azoarcus group I ribozyme (parent)
chain: GUGCCUUGCGCCGGGAAACCACGCAAGGGAUGGUGUCAAAUUCGGCGAAACCUAAGCGCCCGCCCGGGCGUAUGGCAACGCCGAGCCAAGCUUCGGCGCCUGCGCCGAUGAAGGUGUAGAGACUAGACGGCACCCACCUAAGGCAAACGCUAUGGUGAAGGCAUAGUCCAGGGAGUGGCGAAAGUCACACAAACCGG

Variants of: B1
Experiment: reverse-splicing fitness (ratio to wild type); higher = more active; in vitro selection; Mg2+ level not given
Method in brief: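 An in vitro group I ribozyme library with randomized positions was T7-transcribed and gel-purified. In triplicate, 10 pmol RNA in EPPS pH 7.5 was reacted with 50 pmoles of a 30-nt RNA substrate for 1 h at 37 °C across several added MgCl2 levels (1–48 mM), then stopped with EDTA. Products were reverse transcribed from a substrate-complementary primer, PCR-amplified and sequenced (HiSeq 4000). Fitness is a variant's read proportion after selection over that before, normalised to wild type.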

Row | Variant | reverse-splicing fitness
1 | C82A C150U C169G U176A | 0.014
2 | C82A C150U C169G U176C | 0.0175
3 | C82A C150U C169G U176G | 0.00542
4 | C82G A111C A120C A145G C150G C169A U176G | 0.0086
5 | C82G A111C A120C A145G C150G C169A U176A | 0.0142
6 | C82G A111C A120C A145G C150G C169A U176C | 0.0127
7 | C82G A111C A120C A145G C150U | 0.0408
8 | C82G A111C A120C A145G C150G | 0.0102
9 | C82G A111C A120C A145G C150A | 0.0148
10 | C82G A111C A120C A145C C150A C169U U176A | 0.0176
11 | C82G A111C A120C A145C C150A C169U U176G | 0.00799
12 | C82G A111C A120C A145C C150A C169U U176C | 0.0123
13 | C82A C150A U176C | 0.0632
14 | C82A C150A U176G | 0.021
15 | C82A C150A U176A | 0.0524
16 | C82G A111C A120C A145C C169G U176G | 0.0061
17 | C82G A111C A120C A145C C169G U176C | 0.0205
18 | C82G A111C A120C A145C C169G U176A | 0.0259
19 | C82A A145C U176G | 0.129
20 | C82A A145C U176C | 0.44
21 | C82A A145C U176A | 0.346

Row | Variant | reverse-splicing fitness
22 | C82A A145C C150U C169A U176G | 0.00598
23 | C82A A145C C150U C169A U176C | 0.00606
24 | C82A A145C C150U C169A U176A | 0.0106
25 | C82G A111C A120C A145C C150A C169A | 0.00796
26 | C82G A111C A120C A145C C150A C169G | 0.00859
27 | C82G A111C A120C A145C C150A C169U | 0.0113
28 | C82G A111C A120C A145G C150G U176G | 0.00667
29 | C82G A111C A120C A145G C150G U176A | 0.00652
30 | C82G A111C A120C A145G C150G U176C | 0.0113
31 | C82A A145U C150U C169G U176A | 0.0124
32 | C82A A145U C150U C169G U176C | 0.013
33 | C82A A145U C150U C169G U176G | 0.00539
34 | C82A A145U C150A C169U | 0.00955
35 | C82A A145U C150A C169G | 0.00813
36 | C82A A145U C150A C169A | 0.00847
37 | C82A A145G C150U C169G | 0.0117
38 | C82A A145G C150U C169A | 0.0115
39 | C82A A145G C150U C169U | 0.0162
40 | C82A A145U C150G C169G U176A | 0.00926
41 | C82A A145U C150G C169G U176G | 0.0053
42 | C82A A145U C150G C169G U176C | 0.00607

Row | Variant | reverse-splicing fitness
43 | C82A A145G C150G U176C | 0.0513
44 | C82A A145G C150G U176G | 0.0113
45 | C82A A145G C150G U176A | 0.0291
46 | C82G A111C A120C A145G C150G C169G U176G | 0.0062
47 | C82G A111C A120C A145G C150G C169G U176C | 0.0138
48 | C82G A111C A120C A145G C150G C169G U176A | 0.0118
49 | C82A A145U C150U | 0.449
50 | C82A A145U C150A | 0.0549
51 | C82A A145U C150G | 0.0675
52 | C82G A111C A120C A145G C150A C169G U176C | 0.0228
53 | C82G A111C A120C A145G C150A C169G U176G | 0.00768
54 | C82G A111C A120C A145G C150A C169G U176A | 0.0156
55 | C82A C150A C169A U176A | 0.0211
56 | C82A C150A C169A U176C | 0.0177
57 | C82A C150A C169A U176G | 0.007
58 | C82A A145G C150A C169G U176C | 0.0281
59 | C82A A145G C150A C169G U176A | 0.0164
60 | C82A A145G C150A C169G U176G | 0.0061
61 | C82G A111C A120C A145G C150G C169U | 0.00874
62 | C82G A111C A120C A145G C150G C169G | 0.00708
63 | C82G A111C A120C A145G C150G C169A | 0.00885

Row | Variant | reverse-splicing fitness
64 | C82A A145C C150U U176G | 0.0335
65 | C82A A145C C150U U176A | 0.101
66 | C82A A145C C150U U176C | 0.113
67 | C82A A145G C150U U176C | 0.363
68 | C82A A145G C150U U176A | 0.287
69 | C82A A145G C150U U176G | 0.0838
70 | C82A A145G C169U | 0.0161
71 | C82A A145G C169A | 0.0112
72 | C82A A145G C169G | 0.0111
73 | C82G A111C A120C A145G C150U C169A | 0.0101
74 | C82A A145U C150A C169U U176G | 0.00584
75 | C82A A145U C150A C169U U176A | 0.0139
76 | C82A A145U C150A C169U U176C | 0.013
77 | C82A A145G | 0.631
78 | C82A A145U | 0.635
79 | C82A C150A C169U U176C | 0.0166
80 | C82A C150A C169U U176G | 0.00672
81 | C82A C150A C169U U176A | 0.0152
82 | C82A A145U C169U U176C | 0.0127
83 | C82A A145U C169U U176A | 0.0117
84 | C82A A145U C169U U176G | 0.00434
